The target of test [1] is T1, human CD105-ECD: amino acid residues Met 1-Gly 586 of human CD105 (Sino bio: Cat: 10149-H02H) (human, UniProt P17813 26-586).
T1 construct: Bought; also called hCD105-ECD-hFc; hCD105-hFc
T1 sequence: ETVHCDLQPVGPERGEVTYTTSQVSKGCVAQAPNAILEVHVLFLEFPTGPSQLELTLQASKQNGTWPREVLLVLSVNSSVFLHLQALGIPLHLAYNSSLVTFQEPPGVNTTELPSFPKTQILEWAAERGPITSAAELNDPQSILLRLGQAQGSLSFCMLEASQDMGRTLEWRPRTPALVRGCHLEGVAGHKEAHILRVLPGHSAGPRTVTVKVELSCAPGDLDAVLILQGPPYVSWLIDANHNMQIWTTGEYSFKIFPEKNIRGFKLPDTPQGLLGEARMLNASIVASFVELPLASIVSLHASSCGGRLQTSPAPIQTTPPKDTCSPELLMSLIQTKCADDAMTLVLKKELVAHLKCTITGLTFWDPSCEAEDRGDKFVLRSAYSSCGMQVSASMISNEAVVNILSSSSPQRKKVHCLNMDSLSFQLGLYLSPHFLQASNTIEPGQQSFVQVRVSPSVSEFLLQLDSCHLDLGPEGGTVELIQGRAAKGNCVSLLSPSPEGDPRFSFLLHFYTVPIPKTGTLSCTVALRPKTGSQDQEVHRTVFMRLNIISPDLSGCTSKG
The test can be described thus: ELISA, absorbance at 405 nm, one condition per Fab and antigen.

The target in test [2] is T2, human Nectin-2 on the cell surface (U937 cells) (human, UniProt Q92692 32-538).
T2 construct: Endogenous Nectin-2 of U937 cells; also called PVRL2; CD112
T2 sequence: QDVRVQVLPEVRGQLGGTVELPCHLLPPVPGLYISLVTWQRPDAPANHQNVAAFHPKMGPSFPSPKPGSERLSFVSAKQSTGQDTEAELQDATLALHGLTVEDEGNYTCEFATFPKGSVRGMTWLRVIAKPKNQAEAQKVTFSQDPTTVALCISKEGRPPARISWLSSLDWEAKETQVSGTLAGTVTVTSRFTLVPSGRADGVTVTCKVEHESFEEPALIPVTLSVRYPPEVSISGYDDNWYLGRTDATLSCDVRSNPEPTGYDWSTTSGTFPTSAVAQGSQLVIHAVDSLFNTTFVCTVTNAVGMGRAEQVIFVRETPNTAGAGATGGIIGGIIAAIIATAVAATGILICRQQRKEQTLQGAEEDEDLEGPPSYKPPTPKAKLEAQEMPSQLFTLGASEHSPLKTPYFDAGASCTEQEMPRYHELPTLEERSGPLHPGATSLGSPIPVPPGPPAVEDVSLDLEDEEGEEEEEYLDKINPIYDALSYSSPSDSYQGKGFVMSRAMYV
As to the kind of experiment: flow cytometry on whole U937 cells, screen of the 28 clones (Ctrl row = 0); Nectin-2 is named as the antigen on U937 cells only in the later examples. (In general: Flow cytometry measures light scatter and fluorescence of single cells or particles in a stream.)

The target in test [3] is T3, N-terminal domain (NTD) of human PTPRG (amino acid residues 20~448 of human PTPRG) (human, UniProt P23470 20-448).
T3 construct: also called hPTPRG-NTD; human PTPRG NTD
T3 sequence: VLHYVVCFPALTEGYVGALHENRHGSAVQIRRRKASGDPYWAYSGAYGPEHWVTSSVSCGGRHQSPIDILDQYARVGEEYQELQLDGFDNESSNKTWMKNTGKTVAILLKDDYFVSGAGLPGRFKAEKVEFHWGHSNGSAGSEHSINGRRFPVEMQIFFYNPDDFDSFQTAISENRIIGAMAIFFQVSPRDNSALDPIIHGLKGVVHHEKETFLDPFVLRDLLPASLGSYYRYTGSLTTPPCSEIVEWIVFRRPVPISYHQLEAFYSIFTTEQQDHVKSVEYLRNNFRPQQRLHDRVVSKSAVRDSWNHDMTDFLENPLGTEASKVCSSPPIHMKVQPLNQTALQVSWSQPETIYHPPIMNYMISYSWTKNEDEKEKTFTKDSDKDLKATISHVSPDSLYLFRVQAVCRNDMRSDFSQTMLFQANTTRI
The test can be described thus: ELISA, one condition per Fab and antigen; y axis 0 to 1.8 without name or unit. In general terms: ELISA stands for enzyme-linked immunosorbent assay.

Test [4] concerns the target T4, mouse PTPRG ECD (amino acid residues 20-733 of mouse PTPRG) fused to hFc (mouse, UniProt Q05909 20-733).
T4 construct: Produced in-house; also called mPTPRG-ECD; Mouse PTPRG-ECD-hFc; not shown: human Fc (hFc)
T4 sequence: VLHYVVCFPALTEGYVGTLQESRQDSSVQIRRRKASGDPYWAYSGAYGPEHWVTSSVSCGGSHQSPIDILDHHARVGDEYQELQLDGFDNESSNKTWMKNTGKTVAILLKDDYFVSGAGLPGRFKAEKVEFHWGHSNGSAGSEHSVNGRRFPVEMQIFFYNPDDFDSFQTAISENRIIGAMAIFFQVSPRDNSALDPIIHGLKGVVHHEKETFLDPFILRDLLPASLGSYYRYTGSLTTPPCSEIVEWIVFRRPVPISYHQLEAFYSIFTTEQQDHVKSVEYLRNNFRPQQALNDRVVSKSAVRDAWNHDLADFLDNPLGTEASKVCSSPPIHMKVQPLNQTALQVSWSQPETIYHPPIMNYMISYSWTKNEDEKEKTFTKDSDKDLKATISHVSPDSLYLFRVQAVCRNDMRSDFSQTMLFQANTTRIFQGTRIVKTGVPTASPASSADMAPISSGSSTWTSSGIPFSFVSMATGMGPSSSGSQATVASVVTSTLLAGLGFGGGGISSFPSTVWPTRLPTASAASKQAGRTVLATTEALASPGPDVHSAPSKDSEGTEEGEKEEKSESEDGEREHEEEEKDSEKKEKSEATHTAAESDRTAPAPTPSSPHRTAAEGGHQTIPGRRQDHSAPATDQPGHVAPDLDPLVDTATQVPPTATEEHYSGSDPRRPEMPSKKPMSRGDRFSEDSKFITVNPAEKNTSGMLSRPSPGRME
The description is as above.

Test [5] addresses T5, human PTPRG extracellular domain (ECD) (residues 20~736 of human PTPRG) fused to hFc (human, UniProt P23470 20-736).
T5 construct: Produced in-house by transient transfection of Expi293 cells; also called hPTPRG-ECD-hFc; hPTPRG-ECD; not shown: human Fc (hFc)
T5 sequence: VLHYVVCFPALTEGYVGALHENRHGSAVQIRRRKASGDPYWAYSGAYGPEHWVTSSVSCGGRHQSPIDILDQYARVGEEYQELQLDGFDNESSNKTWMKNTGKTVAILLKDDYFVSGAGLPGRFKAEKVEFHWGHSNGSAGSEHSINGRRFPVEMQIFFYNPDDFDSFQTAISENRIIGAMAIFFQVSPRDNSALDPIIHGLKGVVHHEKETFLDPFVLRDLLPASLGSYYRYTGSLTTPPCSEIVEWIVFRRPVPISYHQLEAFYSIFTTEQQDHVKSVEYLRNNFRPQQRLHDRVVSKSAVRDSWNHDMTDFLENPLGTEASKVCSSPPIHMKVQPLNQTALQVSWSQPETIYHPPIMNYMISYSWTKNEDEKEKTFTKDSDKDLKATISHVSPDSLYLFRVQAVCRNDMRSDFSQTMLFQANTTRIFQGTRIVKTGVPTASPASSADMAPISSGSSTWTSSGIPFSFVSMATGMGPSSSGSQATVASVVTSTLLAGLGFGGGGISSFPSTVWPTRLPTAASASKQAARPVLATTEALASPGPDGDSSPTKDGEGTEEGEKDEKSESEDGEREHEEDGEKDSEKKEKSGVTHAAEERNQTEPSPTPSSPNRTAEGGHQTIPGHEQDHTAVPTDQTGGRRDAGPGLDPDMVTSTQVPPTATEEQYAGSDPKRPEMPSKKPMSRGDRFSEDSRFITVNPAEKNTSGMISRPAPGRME
The description is as above.

Test [6] addresses T5, human PTPRG extracellular domain (ECD) …. As to the kind of experiment: ELISA, absorbance at 405 nm, one condition per Fab and antigen.
The target of test [7] is T6, human Nectin-2 extracellular domain (amino acid residues 1-360 of human Nectin-2) fused to hFc (human, UniProt Q92692 32-360).
T6 construct: Bought; also called hNectin-2-ECD-hFc; NECTIN2-ECD-hFc; not shown: human Fc (hFc)
T6 sequence: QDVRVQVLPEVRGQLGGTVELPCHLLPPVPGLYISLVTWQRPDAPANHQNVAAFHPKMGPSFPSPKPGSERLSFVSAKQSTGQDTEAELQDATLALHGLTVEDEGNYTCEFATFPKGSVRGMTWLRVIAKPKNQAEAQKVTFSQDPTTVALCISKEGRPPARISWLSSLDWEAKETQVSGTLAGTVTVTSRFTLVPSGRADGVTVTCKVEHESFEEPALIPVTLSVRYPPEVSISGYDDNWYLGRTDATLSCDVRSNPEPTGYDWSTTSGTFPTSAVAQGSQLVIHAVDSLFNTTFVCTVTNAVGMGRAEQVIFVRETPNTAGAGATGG
The description is as above.

The target in test [8] is T2, human Nectin-2 on the cell surface …. As to the kind of experiment: competition flow cytometry on U937 cells; competitor of 0.5 µg Alexa 647 labelled Fab_2282.
Test [9] addresses T6, human Nectin-2 extracellular domain …. As to the kind of experiment: SPR, summary table; antigen column hNectin2 ECD.
For test [10] the target is unchanged. The test can be described thus: SPR, Fab on human Nectin-2-ECD-hFc, five concentrations. For orientation: In SPR one partner is held on a chip, and binding of the other changes the refractive index at the surface.

Changes are numbered by the printed parent chain.

B1: Fab_484 (Fab, V domains shown)
VH: AQSLEESGGRLVTPGTPLTLTCTASGFSLSSYHMAWVRQAPGKGLEWIGIISSSGSTYYASWAKGRFTISKTSTTVDLKITSPTTEDTATYFCARGFGWGPNLWGPGTLVTVSS
VL: SFVLTQPASVQVNLGQMVSLTCTADTLSRSYASWYQQKPGQAPVLLIYRDTSRPSGVPDRFSGSTSGNTATLTISGAQAGDEADYYCATDDNSGSSYQYVFGGGTQLTVTG
notes: Chimeric rabbit/human Fab; also called N484
As for B1, the binding result in [1], in test [3], in test [4] and in test [5] was “no binding” in each case. In test [2], the “flow cytometry binding value (the table prints no name or unit)” value was 94.8.

B2: Fab_2810 (Fab, V domains shown)
VH: QEQLEESGGRLVTPGTPLTLTCTASGFSLTNYYMTWVRQAPGKGLEWIGTIYAGTGSTWYASWVKGRFTISKTSTTVDLKITSPTTEDTATYFCVRGYLGWSSGIENIWGPGTLVTVSS
VL: B1 VL with M17T, T65S, D90S, N92G, S96T, Y97F, Q98H, Y99F
notes: Chimeric rabbit/human Fab; also called E2810; mAb_2810
Take B2: the binding result in [6] is listed as “no binding”; in test [7] it was “no binding”; in test [8], “no binding (tested: 5 µg)”.

B3: Fab_350 (Fab, V domains shown)
VH: QEQLEESGGRLVTPGTPLTLTCTASGFSLSSYHMSWVRQAPGKGLEWIGLINTGDSAYYASWAKGRFTISRTSTTVDLRITSPTTEDTATYFCARTFGDGFNLWGPGTLVTISS
VL: B1 VL with N13D, M17T, T65S, D90E, N92S, S93G, G94D
notes: Chimeric rabbit/human Fab; also called N350; clone 350
In general, Kd refers to a measure of binding affinity in units of concentration. Low values mean tighter binding, high ones weaker binding. In general, koff refers to the first-order rate constant of dissociation. Lower therefore signals slow dissociation. A word on the kon: it is a measure of how fast the partners come together. A higher kon goes with fast association. With B3, the “flow cytometry binding value (the table prints no name or unit)” value in test [2] came out at 89.3. For the same molecule, in [9], the Kd amounted to 67.5 nM, the koff is 0.0077 s⁻¹ and the kon turned out to be 114000 M⁻¹ s⁻¹. The molecule also yielded a Kd in [10] of 67.5 nM.

These data come from patent publication US20260265410A1 (UNIVERSITY OF FLORIDA RESEARCH FOUNDATION, published 2026).
